Assay results taken from US20240100152A1 (UNIVERSITY OF PITTSBURGH OF THE COMMONWEALTH SYSTEM OF …, published 2024).

Target: T1, human α7 nicotinic acetylcholine receptor (α7nAChR) expressed on HEK293T/17 cells (human, UniProt P36544 23-502)
T1 construct: whole, on cells
Test: live-cell fluorescent labeling of transfected HEK293 cells

T1 sequence (P36544 23-502): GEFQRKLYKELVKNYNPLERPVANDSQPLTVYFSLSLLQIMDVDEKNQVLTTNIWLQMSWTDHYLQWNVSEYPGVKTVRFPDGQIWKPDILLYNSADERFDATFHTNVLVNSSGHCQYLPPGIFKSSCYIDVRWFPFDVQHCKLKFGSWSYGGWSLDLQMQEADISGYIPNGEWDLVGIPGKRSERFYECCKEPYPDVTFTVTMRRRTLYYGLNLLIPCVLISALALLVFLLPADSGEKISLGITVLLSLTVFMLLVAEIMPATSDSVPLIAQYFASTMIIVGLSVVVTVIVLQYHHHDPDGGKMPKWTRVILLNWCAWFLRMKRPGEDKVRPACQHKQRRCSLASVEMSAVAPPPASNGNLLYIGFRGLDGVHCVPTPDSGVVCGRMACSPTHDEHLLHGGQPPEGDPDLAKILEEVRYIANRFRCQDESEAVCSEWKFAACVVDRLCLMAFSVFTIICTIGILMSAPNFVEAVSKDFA

B1: α-bungarotoxin Alexa Fluor 594 conjugate (ligand)
chain: IVCHTTATSPISAVTCPPGENLCYRKMWCDAFCSSRGKVVELGCAATCPSKKPYEEVTCCSTDKCNPHPKQRPG
- binding result: binds
